According to article PMC3615049 (Biochemistry, 2013):

How the values were obtained:
[1] = molecular target: the molecule itself; assay: SEC
[2] = substrate: COC1=CC(=O)C(C)=C(C/C=C(\C)CCC=C(C)C)C1=O; assay: purified protein; type: biochemical, Homo sapiens; conditions: 200 μM NADH, 5 μM enzyme, 25 °C, pH 7.0
[3] = substrate: COC1=CC(=O)C(C)=CC1=O; assay: purified protein; type: biochemical, Homo sapiens; conditions: 200 μM NADH, 5 μM enzyme, 20 mM Tris pH 7.0 in H2O, 25 °C

B1: GB1-hCLK-1 (human Clock-1 with an N-terminal immunoglobulin binding domain of protein G) (enzyme, UniProt Q99807 39-217, looked up)
chain: MTLDNISRAAVDRIIRVDHAGEYGANRIYAGQMAVLGRTSVGPVIQKMWDQEKDHLKKFNELMVTFRVRPTVLMPLWNVLGFALGAGTALLGKEGAMACTVAVEESIAHHYNNQIRTLMEEDPEKYEELLQLIKKFRDEELEHHDIGLDHDAELAPAYAVLKSIIQAGCRVAIYLSERL
[1]
  stoichiometry N: 2
[2]
  Km: 33.8 µM
  Vmax: 39.2 µM/min
  kcat/Km: 3870 M⁻¹ s⁻¹
[3]
  Km: 68.1 µM
  Vmax: 12.8 µM/min
  kcat/Km: 627 M⁻¹ s⁻¹
